{
  "source": "patent US20240115720A1",
  "about": "“ANTIBODY-PYRROLOBENZODIAZEPINE DERIVATIVE CONJUGATE” (MEMORIAL SLOAN KETTERING CANCER CENTER, priority 2021, published 2024)",
  "key": {"[1]": {"test_system": "DLL3-positive human small cell lung cancer cell line NCI-H82", "experiment": "In vivo antitumor effect, NCI-H82 xenograft (Example 22-3)", "conditions": "nude mice, 0.4 mg/kg intravenous, single dose, FIG. 28", "source_text": "(§1) Substantially the same protocol as in Example 17 was used.\n(§2) The DLL3-positive human small cell lung cancer cell line NCI-H82 (ATCC) was suspended in Matrigel (Corning Inc.), and the cell suspension was subcutaneously inoculated at a dose of 1×10^6 cells to the right flank region of each female nude mouse. After the tumors were established, the mice were randomly grouped (6 mice per group). On the day of grouping, each of the 2 antibody-drug conjugates (H2-C8-A-3-Conjugate, H10-O18-A-3-Conjugate), the reference anti-DLL3 antibody-Conjugate (SC16LD6.5) or anti-LPS antibody-Conjugate was intravenously administered at a dose of 0.4 mg/kg to the tail of each mouse. The abscissa depicts the days after administration, and the ordinate depicts estimated tumor volume. The error range depicts a SE value."}, "[2]": {"test_system": "DLL3-positive human small cell lung cancer cell line NCI-H510A", "experiment": "In vivo antitumor effect, NCI-H510A xenograft (Example 17-3)", "conditions": "BALB/c nude mice, 0.2 mg/kg intravenous, single dose on Day 15, FIG. 21", "experimental": "The antitumor effects of the antibody-drug conjugates were evaluated using animal models derived from immunodeficient mice by the inoculation of DLL3-positive human tumor cell line cells. 4- to 5-week-old BALB/c nude mice (CAnN. Cg-Foxn1 [nu]/CrlCrlj [Foxn1nu/Foxn1nu], Charles River Laboratories Japan inc.) were acclimatized for 3 days or longer under SPF conditions before use in the experiment. The mice were fed with a sterilized solid diet (FR-2, Funabashi Farms Co., Ltd) and given sterilized tap water (which had been prepared by adding a 5 to 15 ppm sodium hypochlorite solution to tap water). The long diameter and short diameter of the inoculated tumor were measured twice a week using electronic digital calipers (CD-15CX, Mitutoyo Corp.), and the volume of the tumor was then calculated according to the following expression.\nTumor volume (mm^3=½×Long diameter (mm)×[Short diameter (mm)]^2\nEach antibody-drug conjugate was diluted with ABS buffer (10 mM acetate buffer, 5% sorbitol, pH 5.5) (Nacalai Tesque, Inc.), and the dilution was intravenously administered at a dose shown in each study to the tail of each mouse. ABS buffer was administered in the same manner as above to a control group (vehicle group). Six mice per group were used in the experiment. The group with the over 3000 mm^3 estimated tumor volume were euthanized at that time. […]"}, "[3]": {"test_system": "DLL3-positive human small cell lung cancer cell line NCI-H510A", "experiment": "In vivo antitumor effect, NCI-H510A xenograft (Example 22-1)", "conditions": "nude mice, 0.2 mg/kg intravenous, single dose, FIG. 26", "source_text": "as §1\nas §2, with “NCI-H510A” for “NCI-H82”, “2.3×10^6” for “1×10^6”, “(SC16LD6.5),” for “(SC16LD6.5)”, “0.2” for “0.4”"}},
  "data": [
    {"molecule": "SC16LD6.5: anti-DLL3 ADC: antibody hSC16.56 (SC16) conjugated with drug linker SG3249 by maleimide conjugation (conjugate, chains of the INN, looked up, SG3249 PBD drug-linker (tesirine), anti-DLL3 ADC: antibody hSC16.56 (SC16) conjugated with drug linker SG3249 by maleimide conjugation) VH: QVQLVQSGAEVKKPGASVKVSCKASGYTFTNYGMNWVRQAPGQGLEWMGWINTYTGEPTYADDFKGRVTMTTDTSTSTAYMELRSLRSDDTAVYYCARIGDSSPSDYWGQGTLVTVSS VL: EIVMTQSPATLSVSPGERATLSCKASQSVSNDVVWYQQKPGQAPRLLIYYASNRYTGIPARFSGSGSGTEFTLTISSLQSEDFAVYYCQQDYTSPWTFGQGTKLEIK", "values": [
      {"measurement": "antitumor effect (estimated tumor volume)", "setting": "[1]", "result": "some tumor growth inhibition without tumor regression effect"},
      {"measurement": "antitumor effect (estimated tumor volume)", "setting": "[2]", "result": "some tumor growth inhibition without tumor regression effect"},
      {"measurement": "antitumor effect (estimated tumor volume)", "setting": "[3]", "result": "some tumor growth inhibition without tumor regression effect"}
    ]}
  ]
}
